Laboratory results: PMC9061721 (2022)

Assays:
[1] = molecular target: A/Hong Kong/01/1968 (H3N2) HA (influenza A virus A/Hong Kong/01/1968 …, UniProt Q91MA7); assay: ELISA
[2] = molecular target: SC/09 H1N1 HA protein (A/Sichuan/01/2009) (influenza A virus A/Sichuan/01/2009 …); assay: ELISA

B1: 28-12 (antibody, V domains shown)
VH: EVQLVESGGGLVQPGGSLRLSCAASGFTFSTYNMNWVRQAPGKGLEWLSYISTSSNTIYYADSVKGRFTISRDNAKNSLFLQMNSLRDEDTAVYYCARDRGCSSTNCYVVGYYFYGMDVWGQGTTVTVSS
VL: DIQMTQSPSSVSASVGDRVTITCRASQGISSYLAWYQLKPGRAPKLLIYGATRLQSGVPSRFSGSGSGTDFTLTISGLQPEDFATYHCQQADSFPLTFGQGTRLEIK
EC50 [1]: 0.0754 µg/mL | EC50 [2]: 0.0647 µg/mL
